According to the supplement of paper PMC10065799, “High-throughput profiling of sequence recognition by tyrosine kinases and SH2 domains using bacterial peptide display” (eLife, 2023):

Columns and labels:
FGFR3 = FGFR3 (UniProt P22607); experiment: phosphorylation enrichment, bacterial display (enrichment ratio); higher = better substrate or ligand; peptides without Tyr show the background
Fyn = Fyn (UniProt P06241); experiment: as above
MERTK = MERTK (UniProt Q12866); experiment: as above
c-Src = experiment: as above
FGFR1 = FGFR1 (UniProt P11362); experiment: as above
c-Abl (mouse) = experiment: as above
Jak2 = Jak2 (UniProt O60674); experiment: as above
Chain of Jak2 (O60674 whole entry, looked up): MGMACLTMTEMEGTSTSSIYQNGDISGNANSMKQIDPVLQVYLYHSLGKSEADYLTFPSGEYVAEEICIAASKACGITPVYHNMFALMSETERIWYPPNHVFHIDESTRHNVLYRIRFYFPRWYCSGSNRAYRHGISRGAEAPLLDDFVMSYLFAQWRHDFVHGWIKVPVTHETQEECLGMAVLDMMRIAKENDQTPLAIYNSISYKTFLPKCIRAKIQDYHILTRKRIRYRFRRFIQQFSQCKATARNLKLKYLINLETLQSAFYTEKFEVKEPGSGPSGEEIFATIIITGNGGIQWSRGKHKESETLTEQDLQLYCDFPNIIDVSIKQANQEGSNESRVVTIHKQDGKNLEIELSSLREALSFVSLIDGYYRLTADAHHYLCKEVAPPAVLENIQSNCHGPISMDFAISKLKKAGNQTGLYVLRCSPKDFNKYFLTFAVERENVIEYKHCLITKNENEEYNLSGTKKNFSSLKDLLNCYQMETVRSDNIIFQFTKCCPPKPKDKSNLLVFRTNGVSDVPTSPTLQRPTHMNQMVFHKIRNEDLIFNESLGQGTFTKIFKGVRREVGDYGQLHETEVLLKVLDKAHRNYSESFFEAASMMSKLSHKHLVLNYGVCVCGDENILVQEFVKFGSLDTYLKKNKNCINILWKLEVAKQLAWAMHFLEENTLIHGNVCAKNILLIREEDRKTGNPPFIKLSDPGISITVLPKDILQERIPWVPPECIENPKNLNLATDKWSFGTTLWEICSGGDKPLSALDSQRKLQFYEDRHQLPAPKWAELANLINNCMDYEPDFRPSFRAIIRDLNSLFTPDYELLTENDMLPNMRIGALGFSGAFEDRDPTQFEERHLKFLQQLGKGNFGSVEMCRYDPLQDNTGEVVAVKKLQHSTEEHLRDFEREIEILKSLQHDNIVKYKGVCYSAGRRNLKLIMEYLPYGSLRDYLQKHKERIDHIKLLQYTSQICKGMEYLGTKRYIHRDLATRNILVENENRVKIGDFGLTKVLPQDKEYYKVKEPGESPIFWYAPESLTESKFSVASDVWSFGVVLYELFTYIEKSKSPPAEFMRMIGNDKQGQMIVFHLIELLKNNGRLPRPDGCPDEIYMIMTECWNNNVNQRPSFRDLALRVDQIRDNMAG

EPHB2 = EPHB2 (UniProt P29323); experiment: as above
Chain of EPHB2 (P29323 whole entry, looked up): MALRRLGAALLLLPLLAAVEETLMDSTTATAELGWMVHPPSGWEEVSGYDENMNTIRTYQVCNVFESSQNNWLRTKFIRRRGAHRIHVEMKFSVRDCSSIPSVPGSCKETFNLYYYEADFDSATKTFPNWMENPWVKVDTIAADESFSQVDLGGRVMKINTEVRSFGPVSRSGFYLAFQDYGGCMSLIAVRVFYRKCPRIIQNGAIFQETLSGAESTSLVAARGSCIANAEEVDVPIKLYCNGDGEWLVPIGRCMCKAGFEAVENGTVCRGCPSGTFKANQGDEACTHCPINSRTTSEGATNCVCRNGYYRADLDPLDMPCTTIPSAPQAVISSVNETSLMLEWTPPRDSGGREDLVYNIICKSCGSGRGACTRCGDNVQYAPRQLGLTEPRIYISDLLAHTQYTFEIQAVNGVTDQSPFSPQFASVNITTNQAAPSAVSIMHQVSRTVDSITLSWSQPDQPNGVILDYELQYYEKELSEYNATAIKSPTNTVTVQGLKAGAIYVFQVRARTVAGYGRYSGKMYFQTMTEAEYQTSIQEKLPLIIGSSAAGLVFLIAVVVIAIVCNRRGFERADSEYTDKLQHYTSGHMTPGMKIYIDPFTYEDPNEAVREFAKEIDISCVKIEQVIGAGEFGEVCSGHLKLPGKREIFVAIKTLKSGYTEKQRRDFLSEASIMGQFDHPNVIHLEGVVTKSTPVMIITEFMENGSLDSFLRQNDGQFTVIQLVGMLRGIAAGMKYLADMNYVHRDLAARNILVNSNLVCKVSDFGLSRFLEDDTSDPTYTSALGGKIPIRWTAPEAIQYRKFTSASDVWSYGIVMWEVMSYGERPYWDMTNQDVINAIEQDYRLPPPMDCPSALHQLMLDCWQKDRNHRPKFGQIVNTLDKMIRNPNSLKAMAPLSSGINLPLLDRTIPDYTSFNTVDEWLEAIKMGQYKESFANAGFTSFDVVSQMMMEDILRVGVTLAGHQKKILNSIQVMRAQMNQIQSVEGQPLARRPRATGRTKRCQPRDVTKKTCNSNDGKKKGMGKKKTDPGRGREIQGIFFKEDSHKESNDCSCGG

Fer (mouse) = experiment: as above
Fes = Fes (UniProt P07332); experiment: as above
Chain of Fes (P07332 whole entry, looked up): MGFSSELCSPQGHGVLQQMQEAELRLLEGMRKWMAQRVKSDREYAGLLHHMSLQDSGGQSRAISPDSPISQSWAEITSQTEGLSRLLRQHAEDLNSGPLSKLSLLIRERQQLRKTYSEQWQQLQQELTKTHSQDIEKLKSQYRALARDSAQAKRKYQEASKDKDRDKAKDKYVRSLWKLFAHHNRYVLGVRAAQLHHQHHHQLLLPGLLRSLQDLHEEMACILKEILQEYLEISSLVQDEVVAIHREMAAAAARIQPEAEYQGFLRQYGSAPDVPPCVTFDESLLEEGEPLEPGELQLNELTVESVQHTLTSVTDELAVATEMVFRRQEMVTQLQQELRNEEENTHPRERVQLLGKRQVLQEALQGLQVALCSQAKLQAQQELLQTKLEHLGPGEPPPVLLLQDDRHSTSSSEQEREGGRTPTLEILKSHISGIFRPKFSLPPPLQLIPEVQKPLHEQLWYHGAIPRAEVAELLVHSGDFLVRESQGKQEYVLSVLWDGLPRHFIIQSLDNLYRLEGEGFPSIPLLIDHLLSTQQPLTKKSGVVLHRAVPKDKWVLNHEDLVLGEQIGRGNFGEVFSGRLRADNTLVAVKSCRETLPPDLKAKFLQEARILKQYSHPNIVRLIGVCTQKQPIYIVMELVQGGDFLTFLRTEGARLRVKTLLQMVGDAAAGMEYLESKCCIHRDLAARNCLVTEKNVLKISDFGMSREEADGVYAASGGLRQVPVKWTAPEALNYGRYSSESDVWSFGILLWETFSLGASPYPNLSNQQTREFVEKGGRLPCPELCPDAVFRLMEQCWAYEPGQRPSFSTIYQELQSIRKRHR

EPHB1 = EPHB1 (UniProt P54762); experiment: as above
Chain of EPHB1 (P54762 whole entry, looked up): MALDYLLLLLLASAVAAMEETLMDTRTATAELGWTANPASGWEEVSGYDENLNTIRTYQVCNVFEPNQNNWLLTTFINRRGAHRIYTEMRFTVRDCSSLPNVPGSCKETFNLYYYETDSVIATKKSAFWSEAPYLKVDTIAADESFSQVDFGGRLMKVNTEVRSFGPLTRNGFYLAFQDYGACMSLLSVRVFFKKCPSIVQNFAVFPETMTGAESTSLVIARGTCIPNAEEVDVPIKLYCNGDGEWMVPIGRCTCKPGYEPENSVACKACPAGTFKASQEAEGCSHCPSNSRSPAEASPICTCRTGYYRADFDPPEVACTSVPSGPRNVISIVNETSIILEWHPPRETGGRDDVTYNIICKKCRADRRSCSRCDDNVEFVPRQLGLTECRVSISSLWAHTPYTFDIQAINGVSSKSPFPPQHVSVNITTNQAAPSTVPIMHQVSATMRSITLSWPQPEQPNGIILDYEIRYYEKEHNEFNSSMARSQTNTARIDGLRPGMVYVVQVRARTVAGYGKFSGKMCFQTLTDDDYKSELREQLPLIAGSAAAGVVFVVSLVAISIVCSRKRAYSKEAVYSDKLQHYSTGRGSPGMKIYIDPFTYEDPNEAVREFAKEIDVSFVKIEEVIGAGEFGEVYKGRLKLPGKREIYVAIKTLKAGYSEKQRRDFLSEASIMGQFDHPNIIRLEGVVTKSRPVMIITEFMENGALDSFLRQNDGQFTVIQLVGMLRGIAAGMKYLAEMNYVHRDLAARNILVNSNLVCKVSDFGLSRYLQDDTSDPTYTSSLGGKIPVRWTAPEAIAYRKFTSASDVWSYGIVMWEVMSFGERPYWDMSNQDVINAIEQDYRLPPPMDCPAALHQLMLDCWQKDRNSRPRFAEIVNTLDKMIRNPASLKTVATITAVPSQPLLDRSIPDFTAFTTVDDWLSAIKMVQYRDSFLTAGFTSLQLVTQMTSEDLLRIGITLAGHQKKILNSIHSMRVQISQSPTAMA

AncSZ = experiment: as above
Hck = Hck (UniProt P08631); experiment: as above
Grb2 SH2 = Grb2 SH2 (UniProt P62993); experiment: SH2 binding enrichment of the phosphorylated peptide, bacterial display (enrichment ratio); higher = better substrate or ligand; peptides without Tyr show the background
Chain of Grb2 SH2 (P62993 whole entry, looked up): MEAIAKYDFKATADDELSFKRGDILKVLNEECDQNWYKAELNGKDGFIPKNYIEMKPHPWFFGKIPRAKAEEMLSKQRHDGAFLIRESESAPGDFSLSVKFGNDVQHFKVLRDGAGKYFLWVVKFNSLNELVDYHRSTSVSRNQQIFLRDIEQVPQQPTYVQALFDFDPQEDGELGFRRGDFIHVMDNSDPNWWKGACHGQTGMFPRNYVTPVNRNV

c-Src SH2 = experiment: as above
SHP2-C SH2 = experiment: as above
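Throughout, for SH2 binding enrichment of the phosphorylated peptide, bacterial display: peptide library displayed on the E. coli surface as eCPX fusions, selected cells deep-sequenced, score is each peptide's frequency after selection divided by its frequency in the input.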
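Throughout, for phosphorylation enrichment, bacterial display: 11-residue human phosphosite peptides and single-mutation variants displayed on the E. coli surface, counted by deep sequencing, each peptide's frequency after selection divided by its frequency in the unselected input library; frequency after pTyr selection over input frequency; kinase dosed for 20-30% of maximal phosphorylation in three min.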

Chain of Fyn (P06241 whole entry, looked up): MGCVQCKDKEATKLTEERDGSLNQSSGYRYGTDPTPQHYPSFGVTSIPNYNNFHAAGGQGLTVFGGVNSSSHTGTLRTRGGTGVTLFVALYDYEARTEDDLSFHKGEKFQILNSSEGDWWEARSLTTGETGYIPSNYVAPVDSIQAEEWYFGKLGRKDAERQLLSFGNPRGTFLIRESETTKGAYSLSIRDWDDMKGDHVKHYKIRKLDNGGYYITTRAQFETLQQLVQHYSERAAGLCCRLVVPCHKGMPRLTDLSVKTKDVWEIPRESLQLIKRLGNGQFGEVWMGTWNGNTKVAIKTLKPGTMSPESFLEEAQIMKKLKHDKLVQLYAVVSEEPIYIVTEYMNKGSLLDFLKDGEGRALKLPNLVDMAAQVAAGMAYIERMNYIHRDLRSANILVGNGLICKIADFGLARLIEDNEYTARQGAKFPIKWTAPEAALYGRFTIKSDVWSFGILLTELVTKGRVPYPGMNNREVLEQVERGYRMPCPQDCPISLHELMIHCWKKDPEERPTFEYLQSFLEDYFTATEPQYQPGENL

| Sequence | phosphorylation enrichment (FGFR3) | phosphorylation enrichment (Fyn) | phosphorylation enrichment (MERTK) | phosphorylation enrichment (c-Src) | phosphorylation enrichment (FGFR1) | phosphorylation enrichment (c-Abl (mouse)) | phosphorylation enrichment (Jak2) | phosphorylation enrichment (EPHB2) | phosphorylation enrichment (Fer (mouse)) | phosphorylation enrichment (Fes) | phosphorylation enrichment (EPHB1) | phosphorylation enrichment (AncSZ) | phosphorylation enrichment (Hck) | SH2 binding enrichment (Grb2 SH2) | SH2 binding enrichment (c-Src SH2) | SH2 binding enrichment (SHP2-C SH2) |
| --- | --- | --- | --- | --- | --- | --- | --- | --- | --- | --- | --- | --- | --- | --- | --- | --- |
| VNTTLYEKFTY [TEK_Y1108] | 0.648 | 3.69 | 4.25 | 3.87 | 0.483 | 0.908 | 0.804 | 1.13 | 5.72 | 0.879 | 1.92 | 0.983 | 4.55 | 0.764 | 3.14 | 0.826 |
| VQEDIYDEFVE [ALDH2_Y332] | 0.731 | 1.89 | 0.542 | 1.87 | 0.459 | 0.859 | 1.34 | 0.715 | 0.658 | 1.3 | 0.728 | 1.2 | 1.15 | 0.752 | 0.437 | 0.408 |
| VRQQDYKKVEE [HADHA_Y283_V282D] | 0.442 | 0.417 | 0.419 | 0.43 | 0.514 | 0.423 | 0.564 | 0.561 | 0.376 | 0.604 | 0.517 | 0.783 | 0.482 | 1.02 | 0.414 | 0.532 |
| VRSVDYVLFRS [FAM189B_Y361] | 1.4 | 0.455 | 0.44 | 0.403 | 2.09 | 0.516 | 0.583 | 0.534 | 0.544 | 0.831 | 0.825 | 1.06 | 0.528 | 1.13 | 0.648 | 1.12 |
| VRTSKYRGGGG [HBA1_Y141_L137R] | 0.618 | 0.426 | 0.648 | 0.542 | 0.423 | 0.637 | 0.609 | 0.407 | 0.365 | 0.676 | 0.366 | 0.64 | 0.424 | 0.602 | 0.353 | 0.571 |
| VSSSDYFSFVL [USP24_Y2138_Y2134S] | 10.5 | 5.34 | 4.39 | 7.49 | 12.3 | 4.78 | 8.84 | 3.25 | 1.1 | 1.66 | 4.7 | 3.42 | 2.49 | 0.715 | 0.52 | 0.679 |
| VTPVMYTFDEF [COL10A1_Y623_G618V_YF] | 0.654 | 0.737 | 0.962 | 0.715 | 0.591 | 0.662 | 1.02 | 0.668 | 0.458 | 1.19 | 0.665 | 1.03 | 0.531 | 0.93 | 0.772 | 0.698 |
| VTSLKYSTPPY [BRIP1_Y916_S919P] | 0.515 | 0.366 | 0.387 | 0.389 | 0.358 | 0.483 | 0.565 | 0.344 | 0.352 | 0.681 | 0.355 | 0.625 | 0.396 | 0.955 | 0.434 | 1.31 |
| VTSLKYSTSPF [BRIP1_Y916_YF] | 0.689 | 0.433 | 0.412 | 0.403 | 0.435 | 0.482 | 0.711 | 0.507 | 0.408 | 0.695 | 0.469 | 0.605 | 0.464 | 1.09 | 0.455 | 0.664 |
| VVRSLYEDLED [VHL_Y185_I180V] | 0.792 | 0.587 | 0.525 | 0.544 | 0.556 | 0.835 | 1.21 | 0.984 | 1.24 | 1.24 | 0.711 | 1.26 | 0.573 | 0.988 | 10.1 | 0.981 |
| WAFNLYDINKD [KCNIP3_Y174] | 0.763 | 1.92 | 1.3 | 1.78 | 0.541 | 0.91 | 1.17 | 1.64 | 1.82 | 1.45 | 1.27 | 1.43 | 2.65 | 0.718 | 0.563 | 0.6 |
| WEQELYSQLVY [WAS_Y102] | 7.23 | 9.39 | 9.2 | 7.33 | 8.38 | 1.55 | 1.35 | 16 | 15.7 | 2.69 | 11.8 | 2.3 | 8.84 | 0.98 | 0.811 | 0.589 |
| WKEREYEVVRD [CPS1_Y634_I632R] | 0.684 | 0.599 | 0.478 | 0.506 | 0.554 | 0.594 | 0.949 | 2.29 | 0.573 | 1.12 | 1.36 | 1.26 | 0.586 | 0.954 | 6.04 | 0.67 |
| WPLKWYVPECI [ZAP70_Y506_A507V] | 0.804 | 0.428 | 0.382 | 0.387 | 0.496 | 0.757 | 1.02 | 0.618 | 0.44 | 1.18 | 0.688 | 1.06 | 0.572 | 0.841 | 0.499 | 0.488 |
| WQLEIYRASRP [ERCC4_Y594_R589W] | 0.702 | 0.492 | 0.521 | 0.45 | 0.375 | 0.997 | 0.911 | 0.628 | 0.471 | 1.22 | 0.567 | 1.27 | 0.491 | 0.717 | 0.599 | 0.546 |
| WQQQSYLFSGI [CTNNB1_Y30_D32Y_YF] | 0.57 | 0.454 | 0.414 | 0.467 | 0.473 | 0.765 | 0.972 | 0.57 | 0.398 | 0.928 | 0.461 | 0.977 | 0.44 | 1.02 | 0.641 | 0.882 |
| YAFQLYDLDRD [CHP2_Y123] | 1.55 | 2.66 | 2.83 | 3.19 | 1.89 | 0.768 | 0.969 | 0.765 | 1.12 | 1.17 | 1.69 | 1.24 | 1.73 | 0.879 | 1.58 | 2.55 |

| Sequence | phosphorylation enrichment (FGFR3) | phosphorylation enrichment (Fyn) | phosphorylation enrichment (MERTK) | phosphorylation enrichment (c-Src) | phosphorylation enrichment (FGFR1) | phosphorylation enrichment (c-Abl (mouse)) | phosphorylation enrichment (Jak2) | phosphorylation enrichment (EPHB2) | phosphorylation enrichment (Fer (mouse)) | phosphorylation enrichment (Fes) | phosphorylation enrichment (EPHB1) | phosphorylation enrichment (AncSZ) | phosphorylation enrichment (Hck) | SH2 binding enrichment (Grb2 SH2) | SH2 binding enrichment (c-Src SH2) | SH2 binding enrichment (SHP2-C SH2) |
| --- | --- | --- | --- | --- | --- | --- | --- | --- | --- | --- | --- | --- | --- | --- | --- | --- |
| YAKSVYWENTL [NUP107_Y296] | 0.619 | 0.61 | 0.526 | 0.871 | 0.49 | 0.728 | 0.821 | 0.485 | 0.492 | 0.967 | 0.584 | 1.02 | 0.674 | 0.823 | 1.12 | 0.894 |
| YASALYRQRRS [FGF11_Y162] | 0.58 | 0.687 | 0.535 | 0.659 | 0.507 | 0.703 | 0.513 | 0.62 | 0.431 | 0.632 | 0.433 | 0.613 | 0.548 | 0.649 | 0.419 | 0.34 |
| YCRHNYGVVES [HLA-DRB1_Y112] | 0.527 | 0.385 | 0.592 | 0.484 | 0.568 | 0.675 | 0.681 | 2.87 | 0.41 | 0.798 | 1.52 | 0.557 | 0.458 | 1.2 | 1.64 | 0.927 |
| YDEYRYRSVIK [CFTR_Y517] | 0.67 | 1.76 | 0.706 | 2.15 | 0.435 | 1.05 | 1.16 | 0.589 | 0.529 | 0.973 | 0.584 | 1.04 | 1.14 | 0.788 | 1.25 | 0.606 |
| YEDALYTVLHR [UNC13D_Y61] | 3.1 | 8.38 | 9.59 | 7.21 | 3.68 | 11.5 | 1.7 | 15.9 | 12.9 | 2.06 | 16.6 | 3.84 | 9.13 | 0.86 | 2.38 | 0.46 |
| YGGLRYGYGVL [KRTAP20-2_Y13] | 0.518 | 1.25 | 0.497 | 1.64 | 0.559 | 0.536 | 0.658 | 0.608 | 0.448 | 0.741 | 0.415 | 0.671 | 1.42 | 1.07 | 0.707 | 1.09 |
| YGLQAYTKVKT [ALDH2_Y502_E504K] | 0.679 | 0.357 | 0.414 | 0.435 | 0.45 | 0.614 | 1.23 | 0.462 | 0.427 | 1.08 | 0.445 | 1.26 | 0.377 | 0.811 | 1.85 | 2.67 |
| YKPGFYNLKEK [LAMA1_Y490_C485Y] | 0.402 | 0.421 | 0.366 | 0.491 | 0.352 | 0.971 | 0.891 | 0.431 | 0.432 | 0.628 | 0.343 | 0.659 | 0.397 | 1.27 | 0.814 | 1.5 |
| YLEKYYKFGCR [NNMT_Y25_S29C] | 0.928 | 0.549 | 0.649 | 0.739 | 0.569 | 1.02 | 1.34 | 0.588 | 0.55 | 1.55 | 0.775 | 1.18 | 0.564 | 0.938 | 0.681 | 0.94 |
| YPLELYERVRI [PRKCG_Y312_M317I] | 0.56 | 0.584 | 0.437 | 0.493 | 0.459 | 0.58 | 0.895 | 1.23 | 4.38 | 1.01 | 1.9 | 1.08 | 1.74 | 0.974 | 1.03 | 0.736 |
| YPPDGYSRHCE [CTNND1_Y213_Y217C] | 0.568 | 0.585 | 0.505 | 0.462 | 0.496 | 0.738 | 0.816 | 0.487 | 0.514 | 0.941 | 0.461 | 0.883 | 0.555 | 0.9 | 0.693 | 0.666 |
| YQCKHYACIRQ [TIMP3_Y182_S179C] | 0.455 | 0.347 | 0.46 | 0.362 | 0.336 | 0.514 | 0.55 | 0.363 | 0.399 | 0.662 | 0.371 | 0.601 | 0.275 | 1.74 | 2.39 | 4.01 |
| YQSKHYACIRQ [TIMP3_Y182] | 0.45 | 0.418 | 0.534 | 0.406 | 0.52 | 0.648 | 0.626 | 0.451 | 0.554 | 0.762 | 0.462 | 0.673 | 0.55 | 1.21 | 2.08 | 6.64 |
| YRAPGYREVVI [TNS2_Y673] | 0.443 | 0.474 | 0.403 | 0.419 | 0.52 | 2.11 | 0.509 | 0.43 | 0.432 | 0.634 | 0.445 | 0.587 | 0.439 | 1.11 | 0.633 | 0.889 |
| YRDALYKFMVD [PHEX_Y250] | 1.25 | 0.61 | 1.2 | 0.624 | 0.869 | 0.803 | 1.11 | 0.797 | 0.678 | 1.33 | 1.24 | 1.14 | 0.712 | 0.846 | 0.572 | 0.665 |
| YRQLPYCPSVE [CTNND2_Y508_Q507P] | 1.41 | 0.647 | 0.728 | 0.881 | 1.48 | 5.88 | 1.41 | 0.747 | 0.804 | 1.53 | 0.692 | 1.51 | 1.09 | 0.686 | 0.494 | 0.585 |
